Source: patent publication US20100279930A1 (published 2010)
Where two headings read alike, the source gives them in different places. No end group written: not given here.

Experiments:
Assay in all cases: 125I-PP displacement
human Y4 receptor [1] = target: T1, human Y4 receptor (human, UniProt P50391 1-375)
human Y4 receptor [2] = target: T1, human Y4 receptor; remark: listed apart in the source
human Y4 receptor [3] = target: T1, human Y4 receptor; remark: listed apart in the source

T1 sequence (P50391 whole entry): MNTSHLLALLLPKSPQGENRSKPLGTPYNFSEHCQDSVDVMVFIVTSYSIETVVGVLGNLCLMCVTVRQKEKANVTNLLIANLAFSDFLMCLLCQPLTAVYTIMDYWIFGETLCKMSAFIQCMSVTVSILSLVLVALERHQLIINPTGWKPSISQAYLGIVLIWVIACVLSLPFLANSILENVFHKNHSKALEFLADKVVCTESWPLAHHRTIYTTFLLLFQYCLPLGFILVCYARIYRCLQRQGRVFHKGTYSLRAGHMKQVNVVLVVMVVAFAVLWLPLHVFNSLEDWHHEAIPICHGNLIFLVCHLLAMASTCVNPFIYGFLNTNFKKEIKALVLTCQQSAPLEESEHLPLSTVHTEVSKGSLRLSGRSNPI

IC50 (human Y4 receptor [1]) | Binder | other results
1.2 nM | APLEPVYPGDNATEEELVKYFIDLRRYINMLTRPRY [6622] | 
16 nM | APLEPVYPGDNATEEEAVRLFIDLRRYINMLTRPRY [6621] | 
 | PLEPKYPGDDATPEELAHYYSELRRYINKLTRPRY [4058706] | IC50 (human Y4 receptor [2]): 0.084 nM
 | APLEPHYPGDNATPEELAKYAAELRRYINKLTRPRY [4058703] | IC50 (human Y4 receptor [2]): 0.059 nM
 | APLEPHYPGDNATPEEMAKYAAELRRYINKLTRPRY [4058696] | IC50 (human Y4 receptor [2]): 0.045 nM
0.17 nM | HAPLEPVYPGDNATPEQMAQYAADLRRYINMLTRPRY [compound of SEQ ID NO:53 (code 6650)] | 
0.21 nM | PAPLEPVYPGDNATPEQMAQYAADLRRYINMLTRPRY [compound of SEQ ID NO:56 (code 6653)] | 
0.22 nM | AAPLEPVYPGDNATPEQMAQYAADLRRYINLLTRPRY [6656] | 
0.21 nM | KAPLEPVYPGDNATPEQMAQYAADLRRYINMLTRPRY [compound of SEQ ID NO:52 (code 6647)] | 
0.35 nM | EAPLEPVYPGDNATPEQMAQYAADLRRYINMLTRPRY [6651] | 
0.36 nM | DAPLEPVYPGDNATPEQMAQYAADLRRYINMLTRPRY [6652] | 
0.18 nM | APLEPVYPGDNATPEQMARYYASLRHYLNMLTRPRY [6462] | 
0.2 nM | APLEPVYPGDNATPEELNRYYASLRRYINMLTRPRY [6460] | 
 | PAPLEPKYPGDDATPEELAHYYSELRRYINKLTRPRY [4058709] | IC50 (human Y4 receptor [2]): 0.083 nM
 | AAPLEPKYPGDDATPEELAHYYSELRRYINKLTRPRY [4058708] | IC50 (human Y4 receptor [2]): 0.079 nM
 | APLEPVYPGDNATPEQMAQYAADLRRYINILTRPRY (ends and bridges not checked) [compound of SEQ ID NO:259 (code 4055713)] | IC50 (human Y4 receptor [3]): 0.22 nM
0.18 nM | APLEPEYPGDNATPEQMAQYAAELRRYINMLTRPRY [6458] | 
0.13 nM | KPLEPVYPGDNATPEQMAQYAADLRRYINMLTRPRY (not fully specified; lauryl-lysine at position 1 (replaces Ala 1)) [compound of SEQ ID NO:11 (code 6435)] | 
4.5 nM | APLKPVYPGDNATPEQMAQYAADLRRYINMLTRPRY [5920] | 
0.49 nM | APLEPVYPGDNATPEQMAQYAADLRHYINMLTRPRY [6438] | 

IC50 (human Y4 receptor [1]) | Binder | other results
0.3 nM | APLEPVYPGDNATPEQMAQYAADLRRYINTLTRPRY [6437] | 
0.85 nM | APLEPVYPGDNATPEQMAQYAKDLRRYINMLTRPRY [6465] | 
0.36 nM | APLEPVYPGDNATPEQMAQYAADLKRYINMLTRPRY [6432] | 
0.5 nM | APLEPVYPGDNATPEQTAQYAADLRRYINTLTRPRY [6638] | 
0.13 nM | APLEPFYPGDNATPEQMAQYAAALRRYINMLTRPRY [6605] | 
8.8 nM | APLEPVYPGDNATPEQMAQYAADLRRYINMLTAPRY [6450] | 
 | APLEPEYPGDNATPEQMAQYAADLRRYINMLTRPRY (ends and bridges not checked) [compound of SEQ ID NO:276 (4055746)] | IC50 (human Y4 receptor [3]): 0.16 nM
4 nM | APLKPVYPGDNATPEQMAQYAADLRRYINMLTRPRY [6443] | 
0.6 nM | GPLEPVYPGDNATPEQMAQYAADLRRYINMLTRPRY [6636] | 
0.25 nM | KPLEPVYPGDNATPEQMAQYAADLRRYINMLTRPRY [6434] | 
 | APLEPVYPGDNATPEQMAQYAADLRRYINMLTRPRF (ends and bridges not checked) [compound of SEQ ID NO:255 (code 4055708)] | IC50 (human Y4 receptor [3]): 0.16 nM
 | APLEPVYPGDNATPEQMAQYAAALRRYINMLTRPRY [compound of SEQ ID NO:277 (Ala 23, code 4055747)] | IC50 (human Y4 receptor [3]): 0.079 nM
0.55 nM | APLEPVYPGDNATPEQLAQYAADLRRYINMLTRPRY [6429] | 
0.41 nM | APLEPVYPGDNATPEQMAQYAADLRRYINLLTRPRY [6430] | 
0.42 nM | APLEPVYPGDNATPEQMAQYAADLRRYINMLTKPRY [6452] | 
0.16 nM | APLEPVYPGDNATPEQMARYAADLRRYINMLTRPRY [6606] | 
0.3 nM | APLEPVYPGDNATHEQMAQYAADLRRYINMLTRPRY [6441] | 
0.26 nM | APLEPVYPGDYATPEQMAQYAADLRRYINMLTRPRY [6440] | 
0.13 nM | APLEPVYPGDDATPQQMAQYAAELRRYINMLTRPRY [6457] | 
2.2 nM | APLEPVYPGDNATPEQMAQYAADLRRYINMLTRPAY [6449] | 

IC50 (human Y4 receptor [1]) | Binder | other results
0.47 nM | APLEPVYPGDNATPEQMAQYAADLRKYINMLTRPRY [6431] | 
0.48 nM | KPLEPVYPGDNATPEQMAQYAADLRRYINMLTRPRY [6436] | 
0.67 nM | APKEPVYPGDNATPEQMAQYAADLRRYINMLTRPRY [6463] | 
1.29 nM | APLEPVYPGDNATPEKMAQYAADLRRYINMLTRPRY [6466] | 
 | APLEPVYPGDNATPEQMAQYAADLRRYINFLTRPRY (ends and bridges not checked) [compound of SEQ ID NO:261 (code 4055715)] | IC50 (human Y4 receptor [3]): 0.13 nM
0.15 nM | APLEPVYPGDNATPEQMAHYYASLRRYINMLTRPRY [6640] | 
 | PLEPEYPGDNATPEEMAKYAAALRRYINKLTRPRY [4058676] | IC50 (human Y4 receptor [2]): 0.061 nM
 | PLEPEYPGDNATPEEMAKYAADLRRYINKLTRPRY [4058675] | IC50 (human Y4 receptor [2]): 0.095 nM
 | PLEPEYPGDNATPEEMARYAAELRRYINKLTRPRY [4058674] | IC50 (human Y4 receptor [2]): 0.082 nM
 | PLEPEYPGDNATPEELAKYAAELRRYINKLTRPRY [4058677] | IC50 (human Y4 receptor [2]): 0.138 nM
0.28 nM | AAAPLEPVYPGDNATPEQMAQYAADLRRYINMLTRPRY [6655] | 
 | APLEPKYPGDDATPEELAHYYSELRRYINKLTRPRY [4058707] | IC50 (human Y4 receptor [2]): 0.089 nM
 | YAPLEPKYPGDNATPEELAKYAAELRRYINKLTRPRY [4058693] | IC50 (human Y4 receptor [2]): 0.077 nM
 | PAPLEPKYPGDNATPEELAKYAAELRRYINKLTRPRY [4058671] | IC50 (human Y4 receptor [2]): 0.105 nM
 | HAPLEPHYPGDNATPEEMAKYAAELRRYINKLTRPRY [4058699] | IC50 (human Y4 receptor [2]): 0.092 nM
 | PAPLEPKAPGDNATPEQMAKYAAELRRYINKLTRPRY [4058668] | IC50 (human Y4 receptor [2]): 0.074 nM
 | GAPLEPKYPGDNATPEELAKYAAELRRYINKLTRPRY [4058691] | IC50 (human Y4 receptor [2]): 0.098 nM
 | AAPLEPKYPGDNATPEELAKYAAELRRYINKLTRPRY [4058689] | IC50 (human Y4 receptor [2]): 0.098 nM
